In publication PMC4432624, “Prdx4 is a compartment-specific H2O2 sensor that regulates neurogenesis by controlling surface expression of GDE2” (Nature Communications, 2015):

Target: the molecule itself
Assay: western blot of Prdx4 dimers and monomers; primary motor neuron cultures treated with H2O2, Tempol or Edaravone; cells lysed with 100 mM maleimide; anti-mPrdx4 blot

B1: mouse Prdx4, endogenous in primary motor neuron cultures (enzyme, UniProt O08807 41-274, looked up)
chain: LESDERFRTRENECHFYAGGQVYPGEASRVSVADHSLHLSKAKISKPAPYWEGTAVINGEFKELKLTDYRGKYLVFFFYPLDFTFVCPTEIIAFGDRIEEFKSINTEVVACSVDSQFTHLAWINTPRRQGGLGPIRIPLLSDLNHQISKDYGVYLEDSGHTLRGLFIIDDKGVLRQITLNDLPVGRSVDETLRLVQAFQYTDKHGEVCPAGWKPGSETIIPDPAGKLKYFDKLN
notes: Peroxiredoxin 4 (Prdx4), mouse, endogenous; also called mPrdx4; source: endogenous, primary motor neuron cultures from E11.5 mouse spinal cords
stoichiometry N: 2
